Consider 5 molecules from patent US20220017612A1 (TILOS THERAPEUTICS, published 2022).

The target of test [1] is T1, human LAP-TGFβ1 overexpressed on cells (human, UniProt P01137 30-390).
T1 construct: HT1080 or P3U1 cells overexpressing wild-type human LAP-TGFβ1; also called HT1080-huB1; HT1080-hβ1
As to the kind of experiment: flow cytometry; legend box on the sheet: black HT1080-null, grey HT1080-huB1. (Flow cytometry measures light scatter and fluorescence of single cells or particles in a stream.)

For test [2], the target named is T2, human LAP-TGFβ1 with a Y74T mutation on HT1080 cells (human, UniProt P01137 30-390).
T2 construct: also called HT1080-Y74T; open conformation
As to the kind of experiment: flow cytometry, HT1080 cells; grey bar = no anti-LAP antibody. The procedure:
(§1) This Example describes the binding of anti-LAP antibodies to LAP-TGFβ isoforms and LAP-TGFβ variants. In addition to antibodies 28G11_hIgG1, 22F9_hIgG1, and 20E6_hIgG1, anti-LAP antibodies 17G8_hIgG1, 24E3_hIgG1, and 2C9_(hyb) were also tested in this experiment. Briefly, 4×10⁵ each of (a) HT1080 cells, (b) HT1080 cells overexpressing human LAP-TGFβ1, (c) HT1080 cells overexpressing human LAP-TGFβ2, (d) HT1080 cells overexpressing human LAP-TGFβ3, (e) HT1080 cells overexpressing murine LAP-TGFβ1, (f) P3U1 cells, (g) P3U1 cells overexpressing LAP-TGFβ1 and GARP, and (h) P3U1 cells overexpressing LAP-TGFβ1 and LRRC33 were cultured in 96-well plates. The plates were centrifuged for 5 min at 1,500 rpm, liquid was removed, and cells were resuspended with 200 μL FACS buffer. The plates were centrifuged again, diluted primary antibody was added to each well, and the plates were incubated on ice for 20 minutes, followed by centrifugation. The cells were resuspended in 200 μL FACS buffer, centrifuged again, and resuspended in 50 μL diluted secondary antibody (Alexa647-anti-Human IgG or APC-anti-Mouse IgG). The plates were incubated on ice for 20 minutes in the dark, washed twice with 200 μL FACS buffer, and cells from each well (in 200 μL FACS buffer) were read on the Attune NXT instrument.
(§2) Cells were processed for flow cytometry in the same manner described above for the isoform-specific binding experiments.

In test [3] the target is T3, human LAP-TGFβ1 with K27C and Y75C mutations on HT1080 cells (human, UniProt P01137 30-390).
T3 construct: also called closed conformation
Described as above. The protocol:
as §1, §2

Test [4] deals with T4, human-chicken LAP-TGFβ1 chimera #2.2 on HT1080 cells (human/chicken chimera, UniProt P01137 30-390).
T4 construct: also called HT1080-ch2.2
The test is described as above. The procedure:
as §1, §2

The target of test [5] is T5, LAP-only variant of human TGFβ1 (empty LAP) on HT1080 cells (human, UniProt P01137 30-277).
T5 construct: LAP without the mature cytokine; also called HT1080-emptyLAP; LAP-only construct
The test is described as above. The protocol: as §1, §2

For test [6], the target named is T6, human LAP-TGFβ2 overexpressed on HT1080 cells (human, UniProt P61812 21-414).
T6 construct: also called HT1080-huB2
T6 sequence: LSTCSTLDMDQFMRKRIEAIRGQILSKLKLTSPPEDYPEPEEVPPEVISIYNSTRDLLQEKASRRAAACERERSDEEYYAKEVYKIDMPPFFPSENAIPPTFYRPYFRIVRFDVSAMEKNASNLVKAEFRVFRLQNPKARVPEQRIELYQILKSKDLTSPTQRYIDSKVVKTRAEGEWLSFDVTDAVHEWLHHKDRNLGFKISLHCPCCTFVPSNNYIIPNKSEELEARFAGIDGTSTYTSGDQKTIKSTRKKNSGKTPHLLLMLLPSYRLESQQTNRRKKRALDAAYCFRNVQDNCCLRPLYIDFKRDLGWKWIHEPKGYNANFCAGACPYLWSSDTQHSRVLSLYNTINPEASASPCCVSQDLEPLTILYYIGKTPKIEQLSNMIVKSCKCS
The test is described as follows: flow cytometry titration, HT1080-huB2 cells. The protocol:
as §1

Test [7] deals with T7, human LAP-TGFβ3 overexpressed on HT1080 cells (human, UniProt P10600 24-412).
T7 construct: also called HT1080-huB3
T7 sequence: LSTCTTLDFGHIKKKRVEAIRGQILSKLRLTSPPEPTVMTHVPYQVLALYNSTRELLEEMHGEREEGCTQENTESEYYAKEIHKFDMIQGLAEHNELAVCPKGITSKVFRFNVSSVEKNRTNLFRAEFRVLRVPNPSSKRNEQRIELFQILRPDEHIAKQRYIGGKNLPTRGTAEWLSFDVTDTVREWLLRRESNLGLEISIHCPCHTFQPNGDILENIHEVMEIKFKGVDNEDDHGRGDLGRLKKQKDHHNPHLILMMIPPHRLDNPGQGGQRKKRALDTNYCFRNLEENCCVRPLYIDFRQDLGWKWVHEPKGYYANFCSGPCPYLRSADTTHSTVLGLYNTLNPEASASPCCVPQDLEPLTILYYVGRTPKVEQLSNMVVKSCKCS
As to the kind of experiment: flow cytometry titration, HT1080-huB3 cells. The procedure:
as §1

Test [8] concerns the target T8, fusion protein of a human IgG1 Fc domain and human LAP-TGFβ1 (human, UniProt P01137 30-390).
T8 construct: printed both as Fc-huB1 and LAP-TGFβ-Fc; also called Fc-huB1; Fc-human LAP
The test is described as follows: BLI, antibody on tip, 1:1 model. The procedure:
(§3) The chimeric antibodies were biotinylated using EZ-Link SulfoNHS-LC-Biotin (ThermoFisher). A streptavidin-functionalized tip was equilibrated in binding buffer (10 mM sodium phosphate, 150 mM sodium chloride, 1% (w/v) bovine serum albumin, 0.05% (w/v) sodium azide, pH 7.4). The tip was dipped in a 10 μg/mL solution of biotinylated, chimeric anti-LAP in binding buffer for 15 seconds to load the tip with antibody. The antibody-loaded tip was then washed in binding buffer and placed in a solution containing 0-24 nM of LAP-TGFβ1 (either a fusion protein containing a human IgG1 Fc domain fused to human LAP-TGFβ1 or a murine LAP-TGFβ1 with a C-terminal polyhistidine purification tag). The antigen was allowed to bind to antibody for 5 minutes (association phase), and then the tip was moved to binding buffer (dissociation phase). The association and dissociation phases were fit to a 1:1 binding model to determine the binding rate constants.
(In general: Biolayer interferometry detects binding as a change in optical thickness at a sensor tip.)

Test [9] has as its target T9, murine LAP-TGFβ1 with a C-terminal polyhistidine purification tag (mouse, UniProt P04202 30-390).
T9 construct: also called Mouse LAP-TGFβ1
The test is described as follows: BLI, antibody on tip, 1:1 model. The procedure:
as §3

Test [10] deals with murine LAP-TGFβ1 overexpressed on cells (mouse, UniProt P04202 30-390). As to the kind of experiment: cell-based or functional assay.
Test [11] addresses T1, human LAP-TGFβ1 overexpressed on cells. The test is described as follows: cell-based or functional assay.
The target is the same in test [12]. The test is described as follows: cell-based or functional assay. The source holds these as a separate data set.
Test [13] has as its target T10, mature human TGFβ1 (free TGFβ1, without LAP) (human, UniProt P01137 279-390).
T10 construct: also called mature TGFβ; free human TGFβ1
As to the kind of experiment: TGFβ1 ELISA after pre-incubation of 1000 pg mature TGFβ1 with antibody; loss of signal reflects binding. The protocol:
To determine whether anti-LAP antibodies 28G11_hIgG1, 22F9_hIgG1, 20E6_hIgG1, 17G8_hIgG1, and 24E3_hIgG1, bind to free human TGFβ1 (i.e., mature TGFβ1 that lacks LAP), the ability of the antibodies to inhibit an anti-TGFβ ELISA was evaluated. Briefly, mature TGFβ1 (1000 pg) was incubated with the indicated anti-LAP antibodies at 10 μg/mL, an isotype control antibody as a negative control or the commercially available anti-TGFβ antibody 1D11 as a positive control for 10 minutes on ice. For example, the 1D11 antibody is commercially available from any number of sellers, for example Bio x Cell Inc. (West Lebanon, N.H.). Supernatants were assayed in a TGFβ1 ELISA (R&D Systems) according to the manufacturer instructions to measure free TGFβ1. […] Note that Figure and FIG. are used interchangeably in this application.
On the technique in general: ELISA stands for enzyme-linked immunosorbent assay.

The target in test [14] is T11, human-chicken LAP-TGFβ1 chimera #2.3 on HT1080 cells (human/chicken chimera, UniProt P01137 30-390).
T11 construct: also called HT1080-ch2.3
As to the kind of experiment: flow cytometry, HT1080 cells; grey bar = no anti-LAP antibody. The protocol:
as §1, §2

The target in test [15] is T12, human GARP and human LAP-TGFβ1 co-expressed on P3U1 cells (human, UniProt Q14392 20-662).
T12 construct: whole, on cells; also called P3U1 cells over-expressing human GARP and LAP-TGFβ1
As to the kind of experiment: flow cytometry, P3U1 cells. The protocol: as §1

Substitutions are numbered along the chain they refer to. Several values for one entry are separate records, joined by “and”; a condition that tells them apart may be missing. Identical values can stand only once.

T2 sequence (P01137 other isoform, or with tags, fused parts or gaps Y74T Y74T): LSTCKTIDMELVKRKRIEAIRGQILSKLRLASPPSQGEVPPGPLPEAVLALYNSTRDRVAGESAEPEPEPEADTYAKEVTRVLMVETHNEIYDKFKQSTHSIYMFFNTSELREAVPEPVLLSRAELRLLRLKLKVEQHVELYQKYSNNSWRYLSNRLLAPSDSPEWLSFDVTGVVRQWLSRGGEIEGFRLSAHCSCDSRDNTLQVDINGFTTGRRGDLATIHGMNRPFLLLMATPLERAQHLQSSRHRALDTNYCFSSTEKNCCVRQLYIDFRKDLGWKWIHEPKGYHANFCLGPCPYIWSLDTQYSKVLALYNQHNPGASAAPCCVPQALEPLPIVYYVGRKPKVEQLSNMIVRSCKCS
T1 sequence (P01137 30-390): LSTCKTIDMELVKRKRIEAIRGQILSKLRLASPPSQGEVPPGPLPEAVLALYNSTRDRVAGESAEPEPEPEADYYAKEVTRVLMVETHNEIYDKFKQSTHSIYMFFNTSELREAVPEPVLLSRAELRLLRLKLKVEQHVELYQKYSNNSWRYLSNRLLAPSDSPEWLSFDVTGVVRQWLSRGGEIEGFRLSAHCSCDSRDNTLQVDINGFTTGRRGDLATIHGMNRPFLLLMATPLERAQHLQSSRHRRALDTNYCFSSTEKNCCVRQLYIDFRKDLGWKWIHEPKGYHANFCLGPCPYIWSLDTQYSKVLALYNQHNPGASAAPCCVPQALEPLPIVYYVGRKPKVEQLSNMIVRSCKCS
T8 sequence (P01137 30-390 limits assumed): as the sequence (P01137 30-390) above
murine LAP-TGFβ1 overexpressed on cells, sequence (P04202 30-390): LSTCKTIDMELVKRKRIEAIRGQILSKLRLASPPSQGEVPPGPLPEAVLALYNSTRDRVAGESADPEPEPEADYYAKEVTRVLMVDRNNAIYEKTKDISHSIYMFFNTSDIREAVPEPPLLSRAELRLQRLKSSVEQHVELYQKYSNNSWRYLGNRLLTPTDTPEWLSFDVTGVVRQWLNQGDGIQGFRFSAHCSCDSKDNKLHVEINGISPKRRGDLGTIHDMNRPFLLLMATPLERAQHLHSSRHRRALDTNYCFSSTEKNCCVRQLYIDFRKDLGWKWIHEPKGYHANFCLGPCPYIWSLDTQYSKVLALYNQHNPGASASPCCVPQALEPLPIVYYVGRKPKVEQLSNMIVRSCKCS
T9 sequence (P04202 30-390 limits assumed): as the sequence (P04202 30-390) above
T4 sequence (P01137 other isoform, or with tags, fused parts or gaps mutant): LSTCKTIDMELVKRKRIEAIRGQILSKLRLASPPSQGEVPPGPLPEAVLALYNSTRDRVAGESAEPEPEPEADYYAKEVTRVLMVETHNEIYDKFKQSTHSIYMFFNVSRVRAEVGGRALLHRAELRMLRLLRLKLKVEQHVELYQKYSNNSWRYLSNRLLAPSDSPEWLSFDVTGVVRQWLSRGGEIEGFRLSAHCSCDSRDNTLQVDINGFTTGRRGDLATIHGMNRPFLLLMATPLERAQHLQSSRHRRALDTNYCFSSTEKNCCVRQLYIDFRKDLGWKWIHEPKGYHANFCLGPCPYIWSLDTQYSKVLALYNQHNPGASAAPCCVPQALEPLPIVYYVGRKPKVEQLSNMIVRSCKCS
T10 sequence (P01137 279-390 limits assumed): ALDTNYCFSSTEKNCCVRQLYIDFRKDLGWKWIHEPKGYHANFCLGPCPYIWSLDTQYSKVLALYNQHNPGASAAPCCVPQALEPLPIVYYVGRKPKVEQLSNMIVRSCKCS
T5 sequence (P01137 30-277, change not shown): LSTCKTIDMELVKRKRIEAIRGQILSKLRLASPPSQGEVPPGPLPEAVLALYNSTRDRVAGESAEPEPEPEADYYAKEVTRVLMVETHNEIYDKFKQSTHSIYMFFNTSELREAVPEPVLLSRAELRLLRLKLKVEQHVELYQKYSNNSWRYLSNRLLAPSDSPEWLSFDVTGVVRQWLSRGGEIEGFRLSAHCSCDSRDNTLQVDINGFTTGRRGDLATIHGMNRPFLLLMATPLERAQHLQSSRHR
T3 sequence (P01137 other isoform, or with tags, fused parts or gaps K27C Y75C K27C Y75C): as the sequence (P01137 other isoform, or with tags, fused parts or gaps Y74T Y74T) above, with K27C, T74Y, Y75C counted along it
T12 sequence (chain, as listed by the source, chain 1 of 2): as the sequence (P01137 30-390) above
T12 sequence (Q14392 20-662, chain 2 of 2): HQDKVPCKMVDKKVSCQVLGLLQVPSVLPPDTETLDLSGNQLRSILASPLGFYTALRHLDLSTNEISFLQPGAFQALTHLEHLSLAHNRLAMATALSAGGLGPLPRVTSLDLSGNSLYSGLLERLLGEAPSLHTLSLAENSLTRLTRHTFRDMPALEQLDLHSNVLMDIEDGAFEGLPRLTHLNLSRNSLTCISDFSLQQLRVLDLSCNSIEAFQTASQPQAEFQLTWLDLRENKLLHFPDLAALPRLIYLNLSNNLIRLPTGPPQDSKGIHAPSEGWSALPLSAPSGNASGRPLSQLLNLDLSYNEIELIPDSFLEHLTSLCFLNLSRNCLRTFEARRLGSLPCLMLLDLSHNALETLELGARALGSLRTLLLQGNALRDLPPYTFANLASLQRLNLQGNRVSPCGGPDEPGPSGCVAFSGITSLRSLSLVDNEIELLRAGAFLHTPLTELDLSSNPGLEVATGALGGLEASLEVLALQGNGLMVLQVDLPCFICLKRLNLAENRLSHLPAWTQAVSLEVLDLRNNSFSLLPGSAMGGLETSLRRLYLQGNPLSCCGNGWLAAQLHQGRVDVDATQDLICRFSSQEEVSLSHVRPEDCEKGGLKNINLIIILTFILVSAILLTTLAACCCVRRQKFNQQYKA
T11 sequence (P01137 other isoform, or with tags, fused parts or gaps mutant): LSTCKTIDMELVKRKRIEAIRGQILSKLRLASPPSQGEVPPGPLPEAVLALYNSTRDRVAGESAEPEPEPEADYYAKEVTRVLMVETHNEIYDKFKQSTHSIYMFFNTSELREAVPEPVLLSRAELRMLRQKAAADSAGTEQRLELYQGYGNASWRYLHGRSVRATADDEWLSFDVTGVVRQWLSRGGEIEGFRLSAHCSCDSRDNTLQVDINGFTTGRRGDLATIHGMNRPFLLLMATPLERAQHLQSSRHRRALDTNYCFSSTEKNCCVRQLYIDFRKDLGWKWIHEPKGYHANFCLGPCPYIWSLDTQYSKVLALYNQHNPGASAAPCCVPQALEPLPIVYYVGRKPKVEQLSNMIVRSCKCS

B1: 28G11_H2.1L3 (antibody, human IgG1, kappa, V domains shown)
VH: EVQLVESGGGLVQPGGSLRLSCAASGFTFTDYYMSWVRQAPGKGLEWLGFIRNKPQGYTTEYSASVKGRFTISRDNSQSSLYLQMNSLKTEDTAVYYCARYTGGGYFDYWGQGTLLTVSS
VL: DIQMTQSPSSLSASVGDRLTISCRASQDISNYLNWYQQKPGKTVKLLIYYTSRLHSGVPSRFSGSGSGTDYTLTISSLQPEDVATYFCQQGDTLPWTFGQGTKLEIKR
In the case of B1, in test [1], the binding result is given as “binds”.

B2: 28G11_H2aL3a (antibody, human IgG1, kappa, V domains shown)
VH: B1 VH with L48V, Q56N, Q78K, S79N, L116V
VL: B1 VL with T43V, F87Y
Regarding B2, the binding result in [1] is listed as “binds”.

B3: 28G11_hIgG1 (antibody, V domains shown)
VH: EVKLVESGGGLVQPGGSLSLSCAASGFTFTDYYMSWVRQPPGKALEWLGFIRNKPNGYTTEYSASVKGRFTISRDNSQSILYLQMNVLRAEDSATYYCARYTGGGYFDYWGQGTTLTVSS
VL: DIQMTQTTSSLSASLGDRLTISCRASQDISNYLNWYQQKPDGTVKLLIYYTSRLHSGVPSRFSGSGSGTDYSLTISNLEQADIATYFCQQGDTLPWTFGGGTKLEIK
Usually Kd stands for the concentration at which binding is half-saturated. A lower Kd goes with tighter binding. One may read the koff as the first-order rate constant of dissociation. A high value points to fast dissociation. What is called kon is the rate constant with which the complex forms. Take B3: the binding result in test [2] is “no binding”; in test [3] it was “binds”; in test [4], “no binding”; in test [5], “no binding”; in test [6], “no binding (tested: about 800 ng/well)”; in test [7] it was “no binding (tested: about 800 ng/well)”. For the same molecule, the binding result in test [13] was “no binding (tested: 10 µg/mL)”. For the same molecule, the Kd in test [8] was 0.67 nM; in [9], 0.19 nM. Besides, the values for the koff in test [8] and in test [9] were 0.00036 s⁻¹ and 0.000158 s⁻¹, respectively. The kon is 540000 M⁻¹ s⁻¹ in test [8] and 840000 M⁻¹ s⁻¹ in test [9]. Besides, the “IC50 of inhibition of TGFβ1 activation (ELISA of active TGFβ1)” value in test [10] was 1 µg/mL; in test [11], 1.4 µg/mL. Besides, the “Inhibition of human TGFβ1 activation (IC50)” value in test [12] is 2.3 µg/mL.

B4: 24E3_hIgG1 (antibody, V domains shown)
VH: QAYLQQSGAELVRPGASVKMSCKASGYTFTSYNMHWVKQTPRQGLEWIGAIYPGNGDTSYNPKFKGKATLTVDKSSSTAYMQLSSLTSEDSAVYFCTRWDWGGYFDVWGTGTTVTVSS
VL: B3 VL with L19V, A81E, E105G
As to B4, the binding result in test [14] is given as “binds”; in test [2], “no binding”; in test [3], “binds”; in [4], “no binding”; in test [5] it was “no binding”; in test [6], “no binding (tested: about 800 ng/well)”. The binding result in [7] was “no binding (tested: about 800 ng/well)”; in [15], “binds”; in [13], “no binding (tested: 10 µg/mL)”. Moreover, the “IC50 of inhibition of TGFβ1 activation” value in test [10] was 1.1 µg/mL and 0.76 µg/mL; in test [11], 2.5 µg/mL and 2.6 µg/mL.

B5: 17G8_hIgG1 (antibody, V domains shown)
VH: B3 VH with P55A, V87A, T102K, G103L, Y109V, Q112T, L116V
VL: B3 VL with L19V, A81E, D92N
In the case of B5, the binding result in test [14] was “binds”; in [2], “no binding”; in test [3], “binds”; in test [4], “no binding”; in test [5] it was “no binding”; in test [6] it was “no binding (tested: about 800 ng/well)”. Further, the binding result is given as “no binding (tested: about 800 ng/well)” in [7], “binds” in test [15] and “no binding (tested: 10 µg/mL)” in test [13]. Besides, the “IC50 of inhibition of TGFβ1 activation” value was 1.4 µg/mL and 0.59 µg/mL in [10]; 1 /ml (as printed) and 1.5 ug/ml in [11].
